Measured values: patent publication US20210380994A1, “LACTOCOCCUS LACTIS EXPRESSION SYSTEM FOR DELIVERING PROTEINS EFFICACIOUS FOR THE TREATMENT OF EPITHELIAL BARRIER FUNCTION DISORDERS” (Second Genome, Inc., priority 2018, published 2021)

B1: SG-11: Roseburia hominis protein comprising SEQ ID NO:3; tested as SEQ ID NO:5, SEQ ID NO:7 or FLAG-tagged SEQ ID NO:9 (protein, listed as Rosburia hominis)
chain: LEGEESVVYVGKKGVIASLDVETLDQSYYDETELKSYVDAEVEDYTAEHGKNAVKVESLKVEDGVAKLKMKYKTPEDYTAFNGIELYQGKVVASLAAGYVYDGEFARVEEGKVVGAATKQDIYSEDDLKVAIIRANTDVKVDGEICYVSCQNVKLTGKDSVSIRDGYYLETGSVTASVDVTGQESVGTEQLSGTEQMEMTGEPVNADDTEQTEAAAGDGSFETDVYTFIVYK
B2: SG-11V5: variant of SEQ ID NO:7 with N53S, N83S, C147V, C151S (protein)
chain: MLEGEESVVYVGKKGVIASLDVETLDQSYYDETELKSYVDAEVEDYTAEHGKSAVKVESLKVEDGVAKLKMKYKTPEDYTAFSGIELYQGKVVASLAAGYVYDGEFARVEEGKVVGAATKQDIYSEDDLKVAIIRANTDVKVDGEIVYVSSQNVKLTGKDSVSIRDGYYLETGSVTASVDVTGQESVGTEQLSGTEQMEMTGEPVNADDTEQTEAAAGDGSFETDVYTFIVYK
modifications: Artificial variant of SG-11 (N53S, N83S, C147V, C151S)

Legend:
[1] = system: human colonic epithelial cells (HCT8 enterocytes and HT29-MTX goblet cells); assay: trans-epithelial electrical resistance (TEER) assay, epithelial/monocyte co-culture disrupted by heat killed E. coli; assay type: cell-based
Protocol: Assays were performed as described below in trans-well plates where co-cultures of multiple cell types were performed utilizing a permeable membrane to separate cells. In the apical (top) chamber, human colonic epithelial cells, consisting of a mixture of enterocytes and goblet cells, were cultured until cells obtained tight junction formation and barrier function capacity as assessed by measurement of trans-epithelial electrical resistance (TEER). In the basolateral chamber, monocytes were cultured separately. Epithelial […] were primed with inflammatory cytokines. The assays measured the effect of a therapeutic protein, e.g., SG-11, on epithelial barrier function, muc2 gene expression, and production of cytokines.
Cell culture. The HCT8 human enterocyte cell line (ATCC Cat. No. CCL-244) was maintained in RPMI-1640 medium supplemented with 10% fetal bovine seam, 100 IU/ml penicillin, 100 ? g/ml streptomycin, 10 ? g/ml gentamicin and 0.25 μg/ml amphotericin (cRPMI). HT29-MTX human goblet cells (Sigma-Aldrich (St. Louis, Mo.; Cat. No. 12040401) were maintained in DMEM medium with 10% fetal bovine serum, 100 IU/ml penicillin, 100 ? g/ml streptomycin, 10 ? g/ml gentamicin and 0.25 μg/ml amphotericin (cDMEM). Epithelial cells were passaged by trypsinization and were used between 5 and 15 passages following thawing from liquid nitrogen stocks. U937 monocytes (ATCC Cat. No. 700928) were maintained in cRPMI medium as a suspension culture, and split by dilution as needed to maintain cells between 5×10^5 and 2×10^6 cell/ml. U937 cells were used up to passage 18 following thawing from liquid nitrogen stocks.
Epithelial cell culture. A mixture of HCT8 enterocytes and HT29-MTX goblet cells were plated at a 9:1 ratio, respectively, in the apical chamber of the transwell plate as described previously (Berget et al., 2017, Int J Mol Sci, 18:1573; Beduneau et al., 2014. Eur J Pharm Biopharm, 87:290-298). A total of 10^5 cells were plated in each well (9×10^4 HCT cells and 1×10^4 HT29-MTX cells per well). Epithelial cells were trypsinized from culture flasks and viable cells determined by trypan blue counting. The correct volumes of each cell type were combined in a single tube and centrifuged. The cell pellet was resuspended in cRPMI and added to the apical chamber of the transwell plate. Celle were cultured for 8 to 10 days at 37° C.+5% CO2, and media was changed every 2 days.
Monocyte culture. On day 6 of epithelial cell culture 2×10^5 cells/well U937 monocytes were plated into a 96 well receiver plate. Cells were cultured at 37° C.+5% CO2 and media was changed every 24 hours for four days.
Co-culture assay. Following 8-10 days of culture, 10 ng/ml IFN-© was added to the basolateral chamber of the transwell plate containing enterocytes, for 24 hours at 37° C.+5% CO2. After 24 hours, fresh cRPMI was added to the epithelial cell culture plate. TEER readings were measured after the IFN-© treatment and were used as the pre-treatment TEER value. SG-11 was then added to the apical chamber of the transwell plate at a final concentration of 1 ? g/ml (40 nM). The myosin light chain kinase (MLCK) inhibitor peptide 18 (BioTechne, Minneapolis, Minn.) was used at 50 nM as a positive control to prevent inflammation induced barrier disruption (Zolotarevsky et al., 2002, Gastroenterology. 123:163-172). […]

[2] = PTM of SG-11 versus SG-11V5 after storage, LC-MS/MS (Example 10); assay type: physicochemical
Protocol: For this analysis, PTMs of wildtype SG-11 (SEQ ID NO:7) and SG-11V5 (SEQ ID NO:19) were compared. In the first analysis (results provided in Table 10 below), the proteins were stored at a concentration of 1 mg/ml in Buffer 1 (50 mM NaPO4, pH 8, 150 mM NaCl, 10% glycerol) and stored for 2 weeks at either 4° C. or 40° C. The proteins were then treated with DTT and Iodoacetamide (IAA), followed by trypsin digestion. The digested samples were then analyzed by Waters ACQUITY UPLC couples to Xevo G2-XS QTOF mass spectrometer using a Protein BEH C18 column.
In a second analysis, the SG-11 (SEQ ID NO:7) and SG-11V5 (SEQ ID NO:19) proteins were each stored at 40° C. in a variety of buffers. The storage buffer used in this experiment was 100 mM NaPO4, pH7, with 10% sorbitol (+Sor) or without 10% sorbitol (−Sor) and with 10% glycerol (+Gly) or without 10% glycerol (−Gly) as indicated in Table 11. […] There were also differences in levels of N137 deamidation for the two proteins with the presence of at least glycerol and also the presence of both sorbitol and glycerol resulting in large decreases in N137 deamidation.

[3] = for precipitation: pH 5.2
Protocol: Effect of additives was also tested at the 3 different pH conditions: 150 mM NaCl (FIGS. 15A, 15D and 15G); 150 mM NaCl and 100 mM arginine (FIGS. 15B, 15E and 15H): and 150 mM NaCl and 0.5 M sorbitol (FIGS. 15C, 15F and 15I). Stability was analyzed by analytical SEC.
Effect of additives was also tested at the 3 different pH conditions: 150 mM NaCl (FIGS. 16A, 16D and 16G); 150 mM NaCl and 100 mM Arg (FIGS. 16B, 16E and 16H); and 150 mM NaCl and 0.5 M sorbitol (FIGS. 16C, 16F and 16I). Stability was analyzed by analytical SEC.

[4] = Example 12, 1 μg/ml (40 nM), 6 hours pre-incubation, SG-11 = SEQ ID NO:9, HK E. coli alone 78.6%, FIG. 17
[5] = 1 mg/ml in Buffer 1 (50 mM NaPO4, pH 8, 150 mM NaCl, 10% glycerol), 2 weeks at 4° C.
[6] = 1 mg/ml in Buffer 1, 2 weeks at 4° C.
[7] = 1 mg/ml in Buffer 1, 2 weeks at 40° C.
[8] = 40° C., 100 mM NaPO4, pH7, + Sor − Gly
[9] = 40° C., 100 mM NaPO4, pH7, + Sor − Sly (so in the source)
[10] = 40° C., 100 mM NaPO4, pH7, − Sor − Gly (first column)
[11] = 40° C., 100 mM NaPO4, pH7, − Sor − Gly (third column as printed)

Molecule | TEER following disruption by HK E. coli [1, 4] | Oxidation of M1 [2, 5] | Deamidation of N137 [2, 6] | Deamidation of N137 [2, 7] | Oxidation of M1 [2, 7] | Deamidation of N137 [2, 8] | Oxidation of M1 [2, 8] | Deamidation of N137 [2, 9] | Oxidation of M1 [2, 9] | Deamidation of N137 [2, 10] | Oxidation of M1 [2, 10] | Deamidation of N137 [2, 11] | Oxidation of M1 [2, 11] | precipitation [3] | other results
B1 | 89.5% | 8.9% | 1.0% | 0.9% | 12.5% | 2.6% | 12.1% | 2.5% | 27.8% | 0.9% | 20% | 3.0% | 38.6% | precipitated | TEER following disruption by HK E. coli ([1]; Example 15, 1 μg/ml, 6 hours pre-incubation, SG-11 = SEQ ID NO:9, HK E. coli alone 78.6%, FIG. 28): 89.5%; TEER following disruption by HK E. coli ([1]; SG-11 1 μg/ml added 6 hours prior to HK E. coli, HK E. coli alone 53.5%, FIG. 1B): 60.6%; TEER following disruption by HK E. coli ([1]; SG-11 (SEQ ID NO:5 or 9) 1 μg/ml (40 nM) added 30 minutes prior to HK E. coli, HK E. coli alone 55.8%, FIG. 1A): 62%; Deamidation of N83 [2, 6]: 19.4%; Deamidation of N83 [2, 7]: 98.1%; Deamidation of N83 [2, 8]: 93.9%; Deamidation of N83 [2, 9]: 87.4%; Deamidation of N83 [2, 10]: 98.1%; Deamidation of N83 [2, 11]: 96.2%; aggregate formation by analytical SEC ([3]; 100 mM arginine at pH 7.0): greatly suppressed
B2 | 89.1% | 2.5% | 0.1% | 0.3% | 4.7% | 3.3% | 3.3% | 0.1% | 5.9% | 1.5% | 2.7% | 0.4% | 5.6% | precipitated | aggregation by analytical SEC ([3]; all conditions tested (pH 5.2, 7.0, 8.0; NaCl, arginine, sorbitol)): did not show a large amount of aggregation
